Laboratory results: patent publication US20240141072A1 (published 2024)

Tests used:
Experiment in all cases: Octet BLI; biotinylated huDLL3-IgG1 fusion on streptavidin tips; single 50 nM trispecific, conditioned medium
[1] = biological target: T1, anti-DLL3 trispecific protein with DLL3 binding domain 51A02
T1 construct: trispecific, one chain
Procedure: (§1) Using the conditioned medium with known concentrations of the anti-DLL3 trispecific proteins, the relative binding affinities of the anti-DLL3 trispecific proteins toward human DLL3 protein were measured using a method where biotinylated version of human DLL3 protein were expressed as a human IgG1 fusion protein, and the binding affinity measurement was carried out in an Octet instrument with streptavidin tips.

[2] = biological target: T2, anti-DLL3 trispecific protein with DLL3 binding domain 52C04
T2 construct: trispecific, one chain; also called 52C4
Procedure: as §1

[3] = biological target: T3, anti-DLL3 trispecific protein with DLL3 binding domain 42A11
T3 construct: trispecific, one chain
Procedure: as §1

[4] = biological target: T4, anti-DLL3 trispecific protein with DLL3 binding domain 41E02
T4 construct: trispecific, one chain
Procedure: as §1

[5] = biological target: T5, anti-DLL3 trispecific protein with DLL3 binding domain 51C02
T5 construct: trispecific, one chain
Procedure: as §1

[6] = biological target: T6, anti-DLL3 trispecific protein with DLL3 binding domain 54B05
T6 construct: trispecific, one chain
Procedure: as §1

[7] = biological target: T7, anti-DLL3 trispecific protein with DLL3 binding domain 42D07
T7 construct: trispecific, one chain
Procedure: as §1

[8] = biological target: T8, anti-DLL3 trispecific protein with DLL3 binding domain 41F07
T8 construct: trispecific, one chain
Procedure: as §1

[9] = biological target: T9, anti-DLL3 trispecific protein with DLL3 binding domain 42E01
T9 construct: trispecific, one chain
Procedure: as §1

[10] = biological target: T10, anti-DLL3 trispecific protein with DLL3 binding domain 42E06
T10 construct: trispecific, one chain
Procedure: as §1

[11] = biological target: T11, anti-DLL3 trispecific protein with DLL3 binding domain 42E07
T11 construct: trispecific, one chain
Procedure: as §1

[12] = biological target: T12, anti-DLL3 trispecific protein with DLL3 binding domain 51D01
T12 construct: trispecific, one chain
Procedure: as §1

[13] = biological target: T13, anti-DLL3 trispecific protein with DLL3 binding domain 52D04
T13 construct: trispecific, one chain; same domain order as the TAC protein m79; also called 52D4
Procedure: as §1

[14] = biological target: T14, anti-DLL3 trispecific protein with DLL3 binding domain 41C02
T14 construct: trispecific, one chain
Procedure: as §1

[15] = biological target: T15, anti-DLL3 trispecific protein with DLL3 binding domain 41G01
T15 construct: trispecific, one chain
Procedure: as §1

[16] = biological target: T16, anti-DLL3 trispecific protein with DLL3 binding domain 41D01
T16 construct: trispecific, one chain
Procedure: as §1

[17] = biological target: T17, anti-DLL3 trispecific protein with DLL3 binding domain 41D07
T17 construct: trispecific, one chain
Procedure: as §1

[18] = biological target: T18, anti-DLL3 trispecific protein with DLL3 binding domain 51G10
T18 construct: trispecific, one chain
Procedure: as §1

[19] = biological target: T19, anti-DLL3 trispecific protein with DLL3 binding domain 42C11
T19 construct: trispecific, one chain
Procedure: as §1

[20] = biological target: T20, anti-DLL3 trispecific protein with DLL3 binding domain 42H11
T20 construct: trispecific, one chain
Procedure: as §1

[21] = biological target: T21, anti-DLL3 trispecific protein with DLL3 binding domain 41B11
T21 construct: trispecific, one chain
Procedure: as §1

[22] = biological target: T22, anti-DLL3 trispecific protein with DLL3 binding domain 42G07
T22 construct: trispecific, one chain
Procedure: as §1

[23] = biological target: T23, anti-DLL3 trispecific protein with DLL3 binding domain 51A05
T23 construct: trispecific, one chain; also called 51A5
Procedure: as §1

[24] = biological target: T24, anti-DLL3 trispecific protein with DLL3 binding domain 42H08
T24 construct: trispecific, one chain
Procedure: as §1

[25] = biological target: T25, anti-DLL3 trispecific protein with DLL3 binding domain 42A07
T25 construct: trispecific, one chain
Procedure: as §1

[26] = biological target: T26, anti-DLL3 trispecific protein with DLL3 binding domain 51F03
T26 construct: trispecific, one chain; also called 51F3
Procedure: as §1

[27] = biological target: T27, anti-DLL3 trispecific protein with DLL3 binding domain 42C08
T27 construct: trispecific, one chain
Procedure: as §1

T12 sequence (chain, as listed by the source): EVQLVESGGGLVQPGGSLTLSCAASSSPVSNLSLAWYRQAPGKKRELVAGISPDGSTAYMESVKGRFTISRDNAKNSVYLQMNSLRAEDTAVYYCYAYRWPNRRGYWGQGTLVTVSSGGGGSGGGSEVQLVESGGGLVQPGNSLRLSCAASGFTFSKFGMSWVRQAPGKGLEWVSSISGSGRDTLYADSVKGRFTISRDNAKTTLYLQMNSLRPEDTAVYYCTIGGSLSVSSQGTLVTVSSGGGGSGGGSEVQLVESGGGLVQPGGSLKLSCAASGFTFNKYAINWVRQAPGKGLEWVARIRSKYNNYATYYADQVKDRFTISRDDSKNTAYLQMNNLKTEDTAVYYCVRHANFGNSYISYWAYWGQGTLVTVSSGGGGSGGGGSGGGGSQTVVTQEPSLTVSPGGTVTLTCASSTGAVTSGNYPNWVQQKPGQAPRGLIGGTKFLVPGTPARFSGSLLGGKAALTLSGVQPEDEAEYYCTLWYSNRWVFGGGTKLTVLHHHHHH
T5 sequence (chain, as listed by the source): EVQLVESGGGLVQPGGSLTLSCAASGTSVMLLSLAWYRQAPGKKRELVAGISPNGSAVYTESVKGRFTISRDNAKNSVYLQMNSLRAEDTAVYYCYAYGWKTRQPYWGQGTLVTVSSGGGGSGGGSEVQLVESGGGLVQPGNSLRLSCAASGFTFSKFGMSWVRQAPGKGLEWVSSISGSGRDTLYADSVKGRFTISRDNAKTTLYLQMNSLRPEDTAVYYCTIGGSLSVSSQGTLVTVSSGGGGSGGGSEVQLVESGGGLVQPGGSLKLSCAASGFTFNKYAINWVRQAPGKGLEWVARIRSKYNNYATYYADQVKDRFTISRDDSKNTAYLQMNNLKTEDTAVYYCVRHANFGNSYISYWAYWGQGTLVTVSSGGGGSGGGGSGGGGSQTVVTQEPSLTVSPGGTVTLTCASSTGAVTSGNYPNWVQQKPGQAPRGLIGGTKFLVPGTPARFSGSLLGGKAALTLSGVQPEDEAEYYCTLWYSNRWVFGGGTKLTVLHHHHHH
T7 sequence (chain, as listed by the source): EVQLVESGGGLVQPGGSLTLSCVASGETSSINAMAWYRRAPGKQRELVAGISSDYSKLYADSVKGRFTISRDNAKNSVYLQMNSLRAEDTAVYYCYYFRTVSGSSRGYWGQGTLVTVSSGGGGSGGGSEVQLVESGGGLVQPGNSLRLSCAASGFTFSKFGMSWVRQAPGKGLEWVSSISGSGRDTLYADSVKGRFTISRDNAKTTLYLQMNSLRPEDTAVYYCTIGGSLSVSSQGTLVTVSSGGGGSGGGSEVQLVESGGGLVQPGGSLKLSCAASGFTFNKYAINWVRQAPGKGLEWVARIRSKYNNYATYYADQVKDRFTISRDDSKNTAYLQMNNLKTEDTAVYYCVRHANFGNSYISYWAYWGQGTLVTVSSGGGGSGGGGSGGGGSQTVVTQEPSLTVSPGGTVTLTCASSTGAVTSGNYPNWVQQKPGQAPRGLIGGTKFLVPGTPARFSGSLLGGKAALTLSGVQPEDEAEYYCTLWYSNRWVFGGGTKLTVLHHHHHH
T9 sequence (chain, as listed by the source): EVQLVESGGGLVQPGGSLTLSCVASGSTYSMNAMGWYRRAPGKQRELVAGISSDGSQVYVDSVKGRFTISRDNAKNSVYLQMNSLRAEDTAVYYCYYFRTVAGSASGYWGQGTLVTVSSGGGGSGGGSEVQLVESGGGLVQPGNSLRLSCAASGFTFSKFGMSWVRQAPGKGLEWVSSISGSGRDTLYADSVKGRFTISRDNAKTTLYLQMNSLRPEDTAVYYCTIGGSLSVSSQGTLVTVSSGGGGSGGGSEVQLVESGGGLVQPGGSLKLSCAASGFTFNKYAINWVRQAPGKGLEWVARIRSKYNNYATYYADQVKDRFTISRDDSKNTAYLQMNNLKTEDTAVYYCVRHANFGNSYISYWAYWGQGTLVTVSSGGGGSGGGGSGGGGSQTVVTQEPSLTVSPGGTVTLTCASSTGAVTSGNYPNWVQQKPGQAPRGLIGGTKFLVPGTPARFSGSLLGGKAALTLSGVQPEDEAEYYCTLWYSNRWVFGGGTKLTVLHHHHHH
T19 sequence (chain, as listed by the source): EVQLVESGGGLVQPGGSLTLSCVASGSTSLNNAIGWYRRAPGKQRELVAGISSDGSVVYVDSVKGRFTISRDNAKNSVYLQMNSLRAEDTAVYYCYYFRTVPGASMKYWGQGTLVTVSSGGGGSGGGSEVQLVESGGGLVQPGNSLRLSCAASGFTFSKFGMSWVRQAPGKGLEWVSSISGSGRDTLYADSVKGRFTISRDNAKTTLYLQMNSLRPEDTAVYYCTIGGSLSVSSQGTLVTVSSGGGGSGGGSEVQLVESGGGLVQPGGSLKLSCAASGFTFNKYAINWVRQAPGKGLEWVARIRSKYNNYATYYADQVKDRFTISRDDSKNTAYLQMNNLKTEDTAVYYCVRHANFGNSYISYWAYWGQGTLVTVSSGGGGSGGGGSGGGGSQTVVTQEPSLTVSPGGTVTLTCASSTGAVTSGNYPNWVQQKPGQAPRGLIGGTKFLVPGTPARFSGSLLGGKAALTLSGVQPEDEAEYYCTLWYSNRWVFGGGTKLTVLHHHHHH
T13 sequence (chain, as listed by the source): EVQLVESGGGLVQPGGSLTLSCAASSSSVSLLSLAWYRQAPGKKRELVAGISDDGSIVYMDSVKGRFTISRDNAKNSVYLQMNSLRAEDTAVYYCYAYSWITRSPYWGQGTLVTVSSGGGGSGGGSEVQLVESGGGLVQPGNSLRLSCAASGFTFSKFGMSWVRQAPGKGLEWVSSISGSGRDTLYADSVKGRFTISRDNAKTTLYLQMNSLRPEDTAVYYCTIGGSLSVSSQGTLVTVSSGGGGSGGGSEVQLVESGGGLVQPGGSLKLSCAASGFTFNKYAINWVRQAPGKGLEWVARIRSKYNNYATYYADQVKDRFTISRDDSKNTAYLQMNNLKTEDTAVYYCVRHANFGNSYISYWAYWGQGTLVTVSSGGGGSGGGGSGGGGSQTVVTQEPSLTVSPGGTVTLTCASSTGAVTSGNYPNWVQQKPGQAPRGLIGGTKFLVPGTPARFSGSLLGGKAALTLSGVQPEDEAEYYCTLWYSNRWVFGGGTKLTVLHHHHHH
T14 sequence (chain, as listed by the source): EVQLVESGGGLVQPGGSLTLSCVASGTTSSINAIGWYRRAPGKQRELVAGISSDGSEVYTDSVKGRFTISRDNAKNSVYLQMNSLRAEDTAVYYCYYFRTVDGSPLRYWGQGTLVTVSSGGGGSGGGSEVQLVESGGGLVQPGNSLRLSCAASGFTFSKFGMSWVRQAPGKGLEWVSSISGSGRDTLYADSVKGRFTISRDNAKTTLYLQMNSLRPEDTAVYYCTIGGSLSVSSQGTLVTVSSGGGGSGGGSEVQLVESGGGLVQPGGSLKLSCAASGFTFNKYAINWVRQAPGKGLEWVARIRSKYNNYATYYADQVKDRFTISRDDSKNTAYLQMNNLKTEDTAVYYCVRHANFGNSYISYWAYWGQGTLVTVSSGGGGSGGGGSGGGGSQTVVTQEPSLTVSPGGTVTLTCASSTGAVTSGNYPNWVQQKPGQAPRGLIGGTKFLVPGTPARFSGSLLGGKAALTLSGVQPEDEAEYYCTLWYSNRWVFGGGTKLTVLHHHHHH
T4 sequence (chain, as listed by the source): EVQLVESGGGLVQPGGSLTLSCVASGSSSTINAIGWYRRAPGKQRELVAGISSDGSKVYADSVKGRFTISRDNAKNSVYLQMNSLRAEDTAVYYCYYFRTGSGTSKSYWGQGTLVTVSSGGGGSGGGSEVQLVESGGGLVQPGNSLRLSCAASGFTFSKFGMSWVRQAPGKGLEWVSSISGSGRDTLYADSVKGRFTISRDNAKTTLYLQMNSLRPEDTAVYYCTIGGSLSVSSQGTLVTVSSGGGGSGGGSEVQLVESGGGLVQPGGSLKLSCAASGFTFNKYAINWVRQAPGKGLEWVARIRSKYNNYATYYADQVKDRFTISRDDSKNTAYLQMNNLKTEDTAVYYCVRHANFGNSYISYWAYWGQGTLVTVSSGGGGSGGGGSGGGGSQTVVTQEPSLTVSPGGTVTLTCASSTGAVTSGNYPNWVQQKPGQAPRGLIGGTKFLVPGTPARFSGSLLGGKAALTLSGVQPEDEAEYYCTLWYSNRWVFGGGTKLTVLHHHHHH
T26 sequence (chain, as listed by the source): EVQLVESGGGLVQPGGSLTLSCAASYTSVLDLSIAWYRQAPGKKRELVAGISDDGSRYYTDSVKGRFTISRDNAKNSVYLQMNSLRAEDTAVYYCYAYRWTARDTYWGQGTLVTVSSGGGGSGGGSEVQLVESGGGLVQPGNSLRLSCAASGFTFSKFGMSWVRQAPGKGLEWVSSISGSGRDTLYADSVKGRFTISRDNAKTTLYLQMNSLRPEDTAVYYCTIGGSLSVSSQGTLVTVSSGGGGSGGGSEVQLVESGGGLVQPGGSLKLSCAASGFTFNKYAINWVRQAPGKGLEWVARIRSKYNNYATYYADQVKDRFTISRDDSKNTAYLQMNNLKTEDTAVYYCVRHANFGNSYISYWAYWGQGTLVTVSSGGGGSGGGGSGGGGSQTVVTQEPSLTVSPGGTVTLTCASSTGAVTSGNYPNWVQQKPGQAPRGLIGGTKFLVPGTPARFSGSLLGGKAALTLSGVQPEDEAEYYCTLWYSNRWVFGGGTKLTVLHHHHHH

B1: biotinylated human DLL3 protein expressed as a human IgG1 fusion protein (Fc fusion, not shown: a dimerising Fc or GST)
chain: AGVFELQIHSFGPGPGPGAPRSPCSARLPCRLFFRVCLKPGLSEEAAESPCALGAALSARGPVYTEQPGAPAPDLPLPDGLLQVPFRDAWPGTFSFIIETWREELGDQIGGPAWSLLARVAGRRRLAAGGPWARDIQRAGAWELRFSYRARCEPPAVGTACTRLCRPRSAPSRCGPGLRPCAPLEDECEAPLVCRAGCSPEHGFCEQPGECRCLEGWTGPLCTVPVSTSSCLSPRGPSSATTGCLVPGPGPCDGNPCANGGSCSETPRSFECTCPRGFYGLRCEVSGVTCADGPCFNGGLCVGGADPDSAYICHCPPGFQGSNCEKRVDRCSLQPCRNGGLCLDLGHALRCRCRAGFAGPRCEHDLDDCAGRACANGGTCVEGGGAHRCSCALGFGGRDCRERADPCAARPCAHGGRCYAHFSGLVCACAPGYMGARCEFPVHPDGASALPAAPPGLRPGDPQRYL
modifications: biotinylated
Kd [1]: 1.2 nM
Kd [2]: 0.82 nM
Kd [3]: 2 nM
Kd [4]: 3.4 nM
Kd [5]: 7.5 nM
Kd [6]: 0.76 nM
Kd [7]: 5.3 nM
Kd [8]: 25 nM
Kd [9]: 4 nM
Kd [10]: 3.8 nM
Kd [11]: 3.9 nM
Kd [12]: 7.9 nM
Kd [13]: 0.5 nM
Kd [14]: 2.4 nM
Kd [15]: 4 nM
Kd [16]: 1.4 nM
Kd [17]: 34 nM
Kd [18]: 0.6 nM
Kd [19]: 2.3 nM
Kd [20]: 3.1 nM
Kd [21]: 9.9 nM
Kd [22]: 1.3 nM
Kd [23]: 1.1 nM
Kd [24]: 2.1 nM
Kd [25]: 3.2 nM
Kd [26]: 1.4 nM
Kd [27]: 1.8 nM
